US20250011363A1, “OPTIMIZED SHORTENED PEPTIDE THAT BINDS TO ACETYLCHOLINE RECEPTOR, AND USE THEREOF” (SKINMED CO., LTD., priority 2021, published 2025)

Target: acetylcholine receptor
Experiment: SPR, AchR immobilized on CM5 chip, peptide at 10 uM

Binder | Binding affinity (RU)
RRLTRR [6mer-2-340] | 122
RGQTRK [6mer-2-350] | 148
RWRSRR [6mer-2-367] | 142
KGVRRR [6mer-2-360] | 141
RWISKK [6mer-2-354] | 135
KSLLRR [6mer-2-370] | 142
KQISKK [6mer-2-343] | 146
KRYRKK [6mer-2-342] | 145
KGIRRK [6mer-2-344] | 148
KLYTKR [6mer-2-351] | 135
RRYSKK [6mer-2-347] | 148
KVVTKR [6mer-2-341] | 144
RGQRKK [6mer-2-357] | 151
KVFTKK [6mer-2-364] | 154
KSRQKK [6mer-2-345] | 148
RLRTRR [6mer-2-368] | 142

Binder | Binding affinity (RU)
RLQTKK [6mer-2-353] | 137
RQIYKK [6mer-2-358] | 154
RWRYRR [6mer-2-365] | 121
RGIRKK [6mer-2-355] | 124
RSFQRR [6mer-2-361] | 153
KSQLRR [6mer-2-348] | 153
RLFCKK [6mer-2-359] | 136
KVVRRR [6mer-2-369] | 145
KRFSKK [6mer-2-346] | 153
RRLSRR [6mer-2-349] | 137
KQYYRR [6mer-2-366] | 142
KSIYRK [6mer-2-363] | 147
RLLQRR [6mer-2-356] | 145
KRLSRR [6mer-2-371] | 148
RWFYRR [6mer-2-352] | 137
RGRQKR [6mer-2-362] | 154

More lines, now with the values ahead:

Binding affinity (RU) | Binder
141 | KQYQKR [6mer-2-391]
131 | KRFQRK [6mer-2-378]
153 | KSLYKK [6mer-2-389]
145 | RGLQRK [6mer-2-393]
146 | KWLCKK [6mer-2-387]
148 | KSVSRR [6mer-2-382]
149 | RQILKR [6mer-2-392]
139 | KLIYRK [6mer-2-373]
141 | KLVLKR [6mer-2-394]
154 | RGVCKR [6mer-2-385]
128 | KLVRRK [6mer-2-383]
125 | KRQLKK [6mer-2-374]
139 | KRFQKK [6mer-2-388]
136 | KWQSKR [6mer-2-386]
141 | KLVQRR [6mer-2-372]
148 | KWRYRR [6mer-2-395]
127 | RGVQKR [6mer-2-379]
142 | RSFQKK [6mer-2-384]
141 | KQQCKR [6mer-2-376]
131 | RVVQKK [6mer-2-375]
142 | RRYCRR [6mer-2-377]
141 | RLVYRK [6mer-2-380]
145 | KWLRRR [6mer-2-390]
139 | KVYRRR [6mer-2-381]
